{
  "source": "patent US20230250176A1",
  "about": "(DRAGONFLY THERAPEUTICS, published 2023)",
  "binders": {"B1": {"name": "EGFR-TriNKET (bispecific antibody, human IgG1, kappa)", "chain": "DIQMTQSPSSLSASVGDRVTITCQASQDISNYLNWYQQKPGKAPKLLIYDASNLETGVPSRFSGSGSGTDFTFTISSLQPEDIATYYCQHFRHLPLAFGCGTKVEIKGGGGSGGGGSGGGGSGGGGSQVQLQESGPGLVKPSETLSLTCTVSGGSVSSGDYYWTWIRQSPGKCLEWIGHIYYSGNTNYNPRLKSRLTISIDTSKTQFSLKLSSVTAADTAIYYCVRDRVTGAFDIWGQGTMVTVSSGSDKTHTCPPCPAPELLGGPSVFLFPPKPKDTLMISRTPEVTCVVVDVSHEDPEVKFNWYVDGVEVHNAKTKPREEQYNSTYRVVSVLTVLHQDWLNGKEYKCKVSNKALPAPIEKTISKAKGQPREPRVYTLPPCRDELTKNQVSLTCLVKGFYPSDIAVEWESNGQPENNYKTTPPVLVSDGSFTLYSKLTVDKSRWQQGNVFSCSVMHEALHNHYTQKSLSLSPG", "heavy": "EVQLVESGGGLVKPGGSLRLSCAASGFTFSSYSMNWVRQAPGKGLEWVSSISSSSSYIYYADSVKGRFTISRDNAKNSLYLQMNSLRAEDTAVYYCARGAPIGAAAGWFDPWGQGTLVTVSSASTKGPSVFPLAPSSKSTSGGTAALGCLVKDYFPEPVTVSWNSGALTSGVHTFPAVLQSSGLYSLSSVVTVPSSSLGTQTYICNVNHKPSNTKVDKKVEPKSCDKTHTCPPCPAPELLGGPSVFLFPPKPKDTLMISRTPEVTCVVVDVSHEDPEVKFNWYVDGVEVHNAKTKPREEQYNSTYRVVSVLTVLHQDWLNGKEYKCKVSNKALPAPIEKTISKAKGQPREPQVCTLPPSRDELTENQVSLTCLVKGFYPSDIAVEWESNGQPENNYKTTPPVLDSDGSFFLYSWLTVDKSRWQQGNVFSCSVMHEALHNHYTQKSLSLSPG", "light": "DIQMTQSPSSVSASVGDRVTITCRASQGISSWLAWYQQKPGKAPKLLIYAASSLQSGVPSRFSGSGSGTDFTLTISSLQPEDFATYYCQQGVSFPRTFGGGTKVEIKRTVAAPSVFIFPPSDEQLKSGTASVVCLLNNFYPREAKVQWKVDNALQSGNSQESVTEQDSKDSTYSLSSTLTLSKADYEKHKVYACEVTHQGLSSPVTKSFNRGEC", "notes": "also called EGFR-TriNKET-3"}},
  "key": {"cynomolgus monkey FcRn": {"biological_target": "cynomolgus monkey FcRn (cynomolgus monkey, UniProt Q8SPV9 24-297; Q8SPW0 21-119, limits assumed)", "sequence (Q8SPV9 24-297 limits assumed, chain 1 of 2)": "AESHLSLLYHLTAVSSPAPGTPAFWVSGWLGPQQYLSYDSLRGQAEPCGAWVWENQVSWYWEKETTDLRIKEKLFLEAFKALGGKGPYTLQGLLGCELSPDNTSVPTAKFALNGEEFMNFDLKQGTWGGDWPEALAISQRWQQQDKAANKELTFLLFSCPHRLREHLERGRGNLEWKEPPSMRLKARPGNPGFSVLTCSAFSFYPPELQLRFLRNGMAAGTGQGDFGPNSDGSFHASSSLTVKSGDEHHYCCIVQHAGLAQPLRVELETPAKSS", "sequence (Q8SPW0 21-119 limits assumed, chain 2 of 2)": "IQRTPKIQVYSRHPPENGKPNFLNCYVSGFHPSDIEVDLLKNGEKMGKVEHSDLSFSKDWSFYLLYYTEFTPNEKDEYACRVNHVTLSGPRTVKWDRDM", "test": "SPR, pH 6.0; pH 6.0"}, "[1]": {"biological_target": "T1, purified recombinant human EGFR (human, UniProt P00533 25-645)", "T1 construct": "the whole entry is named; also called recombinant human epidermal growth factor receptor", "test": "SPR (Biacore 8K), 37 C", "experimental": "Measurements were performed using a Biacore8K SPR instrument."}},
  "data": [
    {"binder": "B1", "values": [
      {"measurement": "Kd", "setting": "cynomolgus monkey FcRn", "value": 900, "unit": "nM"},
      {"measurement": "fold weaker affinity than panitumumab", "setting": "[1]", "value": 4.7, "unit": "fold"}
    ]}
  ]
}
